# Laboratory results: publication PMC11933560
# Target: mCherry-LHBs (HBV large envelope protein with mCherry at the N-terminus) (Hepatitis B virus) (UniProt P03138)
# Assay: FRET or BRET
substance,measurement,value
mCherry-LHBs (HBV large envelope protein with mCherry at the N-terminus) (from UniProt P03138 1-389) (natural protein),FRET efficiency,35%
